For the experiment, the target named is HER3 (human (endogenous in LIM1215)) (UniProt P21860). The experiment in a line: Collaborative Enzyme Enhanced Reactive-immunoassay (CEER); proximity-mediated immunoassay in a multiplexed array format on LIM1215 cell lysates, done by Prometheus Laboratories; cells control-treated or treated 24h with cetuximab (50 ug/mL), lapatinib (1 uM), gefitinib, cetuximab + trastuzumab (20 ug/mL) or cetuximab + pertuzumab (10 ug/mL); read-out in computed units (CU).
Chain of UniProt P21860 (P21860 20-1342): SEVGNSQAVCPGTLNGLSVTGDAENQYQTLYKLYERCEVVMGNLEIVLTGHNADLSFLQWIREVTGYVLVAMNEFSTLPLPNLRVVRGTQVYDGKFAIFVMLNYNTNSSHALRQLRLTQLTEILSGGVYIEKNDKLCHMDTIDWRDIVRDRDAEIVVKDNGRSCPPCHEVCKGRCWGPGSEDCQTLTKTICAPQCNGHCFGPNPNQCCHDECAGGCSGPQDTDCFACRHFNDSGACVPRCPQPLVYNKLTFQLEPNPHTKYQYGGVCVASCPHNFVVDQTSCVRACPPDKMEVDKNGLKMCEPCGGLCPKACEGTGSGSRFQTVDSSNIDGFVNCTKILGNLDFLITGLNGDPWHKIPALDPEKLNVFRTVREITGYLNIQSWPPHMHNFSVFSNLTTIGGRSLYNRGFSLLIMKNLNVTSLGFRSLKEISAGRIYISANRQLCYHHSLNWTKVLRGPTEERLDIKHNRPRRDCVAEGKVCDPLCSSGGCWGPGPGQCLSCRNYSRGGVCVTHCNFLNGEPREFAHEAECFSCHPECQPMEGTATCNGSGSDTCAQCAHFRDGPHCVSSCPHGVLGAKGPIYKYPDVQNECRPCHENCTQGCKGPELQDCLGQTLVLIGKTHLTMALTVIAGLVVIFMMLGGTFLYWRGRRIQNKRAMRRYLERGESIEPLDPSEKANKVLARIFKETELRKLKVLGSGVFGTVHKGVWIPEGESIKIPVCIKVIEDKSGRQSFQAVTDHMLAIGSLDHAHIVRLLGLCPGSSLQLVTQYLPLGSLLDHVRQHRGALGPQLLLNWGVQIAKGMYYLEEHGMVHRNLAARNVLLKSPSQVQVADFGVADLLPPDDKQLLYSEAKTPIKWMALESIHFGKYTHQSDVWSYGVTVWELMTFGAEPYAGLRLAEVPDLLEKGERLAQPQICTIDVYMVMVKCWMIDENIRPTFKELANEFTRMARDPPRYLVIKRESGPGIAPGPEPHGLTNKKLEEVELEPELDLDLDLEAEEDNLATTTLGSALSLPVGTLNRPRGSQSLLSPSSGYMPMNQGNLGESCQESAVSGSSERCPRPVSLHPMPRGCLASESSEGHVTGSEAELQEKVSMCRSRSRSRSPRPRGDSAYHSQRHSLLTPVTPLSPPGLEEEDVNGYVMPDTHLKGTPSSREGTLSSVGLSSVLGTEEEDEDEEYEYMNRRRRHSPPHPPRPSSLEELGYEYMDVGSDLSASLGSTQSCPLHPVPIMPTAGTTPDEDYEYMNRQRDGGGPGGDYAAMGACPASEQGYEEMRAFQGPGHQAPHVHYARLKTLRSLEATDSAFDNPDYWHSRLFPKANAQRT

Chain of PI3K p85 (P27986 whole entry): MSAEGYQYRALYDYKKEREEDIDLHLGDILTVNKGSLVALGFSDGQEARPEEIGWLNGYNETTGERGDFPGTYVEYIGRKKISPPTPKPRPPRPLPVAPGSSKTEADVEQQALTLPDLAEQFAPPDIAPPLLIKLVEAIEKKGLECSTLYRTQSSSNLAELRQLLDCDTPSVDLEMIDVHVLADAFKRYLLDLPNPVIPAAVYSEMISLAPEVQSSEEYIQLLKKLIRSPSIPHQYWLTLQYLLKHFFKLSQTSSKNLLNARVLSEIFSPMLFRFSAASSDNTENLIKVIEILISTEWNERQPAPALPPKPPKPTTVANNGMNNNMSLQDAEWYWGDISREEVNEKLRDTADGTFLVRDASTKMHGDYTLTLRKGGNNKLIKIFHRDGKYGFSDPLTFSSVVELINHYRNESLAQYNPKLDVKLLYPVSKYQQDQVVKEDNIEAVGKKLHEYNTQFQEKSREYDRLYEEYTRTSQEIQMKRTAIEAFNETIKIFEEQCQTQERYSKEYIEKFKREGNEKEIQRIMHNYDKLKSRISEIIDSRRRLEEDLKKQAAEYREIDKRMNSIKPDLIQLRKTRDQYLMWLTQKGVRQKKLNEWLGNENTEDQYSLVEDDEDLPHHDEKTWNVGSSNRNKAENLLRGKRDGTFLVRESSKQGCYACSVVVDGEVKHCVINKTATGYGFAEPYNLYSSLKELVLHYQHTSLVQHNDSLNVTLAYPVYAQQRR

Turning to “PI3K p85 (from UniProt P27986 1-724) (natural protein)”, the fold increase in HER3:PI3K p85 binding, 24h cetuximab against control treatment amounted to 5 fold.
